Source: the supplement of paper PMC9732359
± gives the uncertainty stated by the source.

Test: protein stability index of a GFP-peptide fusion (yeast GPS) (PSI 1-4); higher = more stable; sorted into four equal gates, so the index is relative within each strain
How it was run: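 Tiled yeast protein peptides of 17 residues were each joined downstream of GFP, on plasmids that also express Cherry. The pooled library was maintained in yeast, and mid-log cultures in leucine-free medium were sorted into four equal gates on the GFP/Cherry ratio. Plasmids from every gate were amplified by PCR and sequenced on Illumina, with barcodes linking reads to strains. The protein stability index of a peptide is its gate-number-weighted read frequency summed over the gates.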

FNNGDDDDYGDEEDPNE [RPC31] gave a protein stability index (doa10∆) of 3.25 ± 0.15, a protein stability index (pdr5∆) of 2.36 ± 0.17 and a protein stability index (san1∆) of 2.98 ± 0.088.
Sequence EGEYELTEAVEDGPRPF [RPL5] has a protein stability index (pdr5∆) of 3.31 ± 0.17 and a protein stability index (san1∆) of 3.38 ± 0.066.
With KKNKRALPNIENDIIKL [BRR2] the protein stability index (doa10∆) was 3.09 ± 0.054, the protein stability index (pdr5∆) was 3.36 ± 0.062 and the protein stability index (san1∆) was 3.23 ± 0.04. It also gave a protein stability index (ubr1∆) of 3.34 ± 0.037.
Sequence KPALGSLGSSSTTASGT [YGR119C/NUP57] has a protein stability index (doa10∆) of 3.22 ± 0.085, a protein stability index (pdr5∆) of 3.3 ± 0.084 and a protein stability index (san1∆) of 3.05 ± 0.062. For the same sequence, the protein stability index (ubr1∆) was 3.06 ± 0.1.
Sequence QSNEDTFLPSYMKFSNK [RRI2] has a protein stability index (doa10∆) of 2.84 ± 0.063, a protein stability index (pdr5∆) of 3.05 ± 0.063 and a protein stability index (san1∆) of 3.17 ± 0.052. It also gave a protein stability index (ubr1∆) of 3.18 ± 0.048.
IKNGRIYFTVPNEFEIQ [RGR1] gave a protein stability index (doa10∆) of 2.62 ± 0.06, a protein stability index (pdr5∆) of 2.49 ± 0.045 and a protein stability index (san1∆) of 2.45 ± 0.049. It also gave a protein stability index (ubr1∆) of 2.57 ± 0.043.
HSLREYINGKATALANL [RPO31] showed a protein stability index (doa10∆) of 3.06 ± 0.086, a protein stability index (pdr5∆) of 3.21 ± 0.095 and a protein stability index (san1∆) of 2.57 ± 0.088. For the same sequence, the protein stability index (ubr1∆) was 2.99 ± 0.068.
Work on VPGMPAPIKKIIERYIK [PRP8] yielded a protein stability index (doa10∆) of 3.37 ± 0.24, a protein stability index (pdr5∆) of 3.23 ± 0.13 and a protein stability index (san1∆) of 2.95 ± 0.11. It also gave a protein stability index (ubr1∆) of 3.16 ± 0.13.
For GQSEASLLNLLNISPFT [RPP0], the protein stability index (doa10∆) was 2.59 ± 0.066, the protein stability index (pdr5∆) was 2.1 ± 0.057 and the protein stability index (san1∆) was 2.29 ± 0.085. For the same sequence, the protein stability index (ubr1∆) was 2.66 ± 0.058.
In the case of GGLKSCDLDFPLRENTN [YDL116W/NUP84], the protein stability index (doa10∆) is reported as 2.59 ± 0.058, the protein stability index (pdr5∆) is reported as 2.29 ± 0.059 and the protein stability index (san1∆) is reported as 2.25 ± 0.077. The protein stability index (ubr1∆) was 2.2 ± 0.057.
SIFEDAIKELNYNRIAK [NUT1] showed a protein stability index (doa10∆) of 2.79 ± 0.13, a protein stability index (pdr5∆) of 3.12 ± 0.19 and a protein stability index (san1∆) of 3.07 ± 0.075. For the same sequence, the protein stability index (ubr1∆) was 2.92 ± 0.12.
For AKALESLASCLRSTEYS [POP1], the protein stability index (doa10∆) was 3.08 ± 0.16, the protein stability index (pdr5∆) was 3.25 ± 0.14 and the protein stability index (san1∆) was 2.8 ± 0.13. It also gave a protein stability index (ubr1∆) of 2.61 ± 0.17.
SPKPYAVKYGLNHVVAL [RPL8A] showed a protein stability index (doa10∆) of 2.22 ± 0.066, a protein stability index (pdr5∆) of 2.42 ± 0.06 and a protein stability index (san1∆) of 2.44 ± 0.071. It also gave a protein stability index (ubr1∆) of 2.08 ± 0.044.
In the case of DDFDMLFGENDTSTQAY [NUT1], the protein stability index (doa10∆) is reported as 3.42 ± 0.08, the protein stability index (pdr5∆) is reported as 3.37 ± 0.071 and the protein stability index (san1∆) is reported as 3.51 ± 0.053. The protein stability index (ubr1∆) was 3.2 ± 0.055.
AEASFTFGTKHAADSQN [YLR335W/NUP2] gave a protein stability index (doa10∆) of 3.27 ± 0.14, a protein stability index (pdr5∆) of 3.01 ± 0.13 and a protein stability index (san1∆) of 3.03 ± 0.092. The protein stability index (ubr1∆) was 2.67 ± 0.091.
RFSYSPPKEGNYEIVFD [YMR129W/POM152] gave a protein stability index (doa10∆) of 3.05 ± 0.29, a protein stability index (pdr5∆) of 3.24 ± 0.18 and a protein stability index (san1∆) of 3.13 ± 0.071. For the same sequence, the protein stability index (ubr1∆) was 3.45 ± 0.16.
Sequence TTGISSTGAADGGYNAQ [SMC2] has a protein stability index (doa10∆) of 3.32 ± 0.13, a protein stability index (pdr5∆) of 3.4 ± 0.093 and a protein stability index (san1∆) of 3.23 ± 0.069. For the same sequence, the protein stability index (ubr1∆) was 3.17 ± 0.11.
AADNLGSYGSLLRFNGV [PRE4] showed a protein stability index (doa10∆) of 3.03 ± 0.088, a protein stability index (pdr5∆) of 3.15 ± 0.078 and a protein stability index (san1∆) of 3.25 ± 0.12. The protein stability index (ubr1∆) was 3.04 ± 0.21.
Work on VNWLAYTYLYVRMLASP [BRR2] yielded a protein stability index (doa10∆) of 1.11 ± 0.14, a protein stability index (pdr5∆) of 1.14 ± 0.18 and a protein stability index (san1∆) of 1.31 ± 0.19. It also gave a protein stability index (ubr1∆) of 1.24 ± 0.1.
NHVKQFYERLDKSTTQL [MED11] showed a protein stability index (doa10∆) of 2.47 ± 0.061, a protein stability index (pdr5∆) of 2.64 ± 0.081 and a protein stability index (san1∆) of 2.5 ± 0.052. For the same sequence, the protein stability index (ubr1∆) was 2.62 ± 0.083.
Work on NSINNNNIKNGTNNISQ [YDL088C/ASM4] yielded a protein stability index (doa10∆) of 2.79 ± 0.044, a protein stability index (pdr5∆) of 2.75 ± 0.046 and a protein stability index (san1∆) of 2.74 ± 0.046. It also gave a protein stability index (ubr1∆) of 2.98 ± 0.035.
For DTAVKTAETGYIQRRLV [RPO21], the protein stability index (doa10∆) was 1.75 ± 0.053, the protein stability index (pdr5∆) was 2.5 ± 0.069 and the protein stability index (san1∆) was 1.98 ± 0.12. The protein stability index (ubr1∆) was 2.13 ± 0.058.
SDIVLDKKVTLITSEMF [SIN4] showed a protein stability index (doa10∆) of 1.69 ± 0.085, a protein stability index (pdr5∆) of 1.92 ± 0.13 and a protein stability index (san1∆) of 1.79 ± 0.11. The protein stability index (ubr1∆) was 2.14 ± 0.073.
KKLVWPLHLIFAQPVAD [SSN2] showed a protein stability index (doa10∆) of 1.88 ± 0.075, a protein stability index (pdr5∆) of 1.39 ± 0.073 and a protein stability index (san1∆) of 1.26 ± 0.11. For the same sequence, the protein stability index (ubr1∆) was 1.17 ± 0.062.
CKSLISENEDTKDLLSK [CSE2] showed a protein stability index (doa10∆) of 3.23 ± 0.098, a protein stability index (pdr5∆) of 3.21 ± 0.093 and a protein stability index (san1∆) of 3.1 ± 0.066. It also gave a protein stability index (ubr1∆) of 3.22 ± 0.12.
With ESDETTTDNNNSGNSNS [RPT1] the protein stability index (doa10∆) was 3.12 ± 0.094, the protein stability index (pdr5∆) was 3.11 ± 0.098 and the protein stability index (san1∆) was 2.66 ± 0.22. For the same sequence, the protein stability index (ubr1∆) was 3.13 ± 0.051.
With SRMFEEVSGSIQYKKEY [SMC1] the protein stability index (doa10∆) was 3.09 ± 0.057, the protein stability index (pdr5∆) was 2.02 ± 0.06 and the protein stability index (san1∆) was 2.37 ± 0.075. The protein stability index (ubr1∆) was 3.21 ± 0.057.
Work on ASYAKYLIDHIKVEGAV [RPL22A] yielded a protein stability index (doa10∆) of 2.95 ± 0.17, a protein stability index (pdr5∆) of 3.13 ± 0.15 and a protein stability index (san1∆) of 2.85 ± 0.092. For the same sequence, the protein stability index (ubr1∆) was 3.23 ± 0.11.
Sequence TAAQVANVELTPSNIRS [RPC34] has a protein stability index (doa10∆) of 2.79 ± 0.1, a protein stability index (pdr5∆) of 2.82 ± 0.071 and a protein stability index (san1∆) of 2.8 ± 0.085. For the same sequence, the protein stability index (ubr1∆) was 2.87 ± 0.093.
LSKVAALSGNEGDASPF [RPB2] gave a protein stability index (doa10∆) of 1.91 ± 0.046, a protein stability index (pdr5∆) of 2.79 ± 0.052 and a protein stability index (san1∆) of 2.15 ± 0.083. It also gave a protein stability index (ubr1∆) of 2.59 ± 0.071.
KAMSSRAGVSQVLNRYT [RPB2] gave a protein stability index (doa10∆) of 3.17 ± 0.11, a protein stability index (pdr5∆) of 3.21 ± 0.096 and a protein stability index (san1∆) of 2.97 ± 0.073. It also gave a protein stability index (ubr1∆) of 3.29 ± 0.053.
In the case of SIMVELKLPLEINYAFS [SIR3], the protein stability index (doa10∆) is reported as 1.31 ± 0.077, the protein stability index (pdr5∆) is reported as 1.64 ± 0.064 and the protein stability index (san1∆) is reported as 1.55 ± 0.12. It also gave a protein stability index (ubr1∆) of 1.5 ± 0.058.
GTYIQERNPSQRPQRRY [RPS10B] gave a protein stability index (doa10∆) of 3.01 ± 0.052, a protein stability index (pdr5∆) of 3.1 ± 0.042 and a protein stability index (san1∆) of 3.09 ± 0.033. For the same sequence, the protein stability index (ubr1∆) was 3.23 ± 0.036.
RCMMAAQYFYSGAYSYP [DIS3] gave a protein stability index (doa10∆) of 2.14 ± 0.12, a protein stability index (pdr5∆) of 2.31 ± 0.11 and a protein stability index (san1∆) of 1.81 ± 0.2. The protein stability index (ubr1∆) was 2.12 ± 0.11.
For SEYKVAFPHLYNSRPRS [PRP8], the protein stability index (doa10∆) was 2.91 ± 0.071, the protein stability index (pdr5∆) was 2.66 ± 0.072 and the protein stability index (san1∆) was 2.85 ± 0.086. The protein stability index (ubr1∆) was 2.77 ± 0.06.
LDTFIKIDGNPDELIKA [PRE5] showed a protein stability index (doa10∆) of 3.19 ± 0.12, a protein stability index (pdr5∆) of 3.19 ± 0.12 and a protein stability index (san1∆) of 3.31 ± 0.071. It also gave a protein stability index (ubr1∆) of 3.36 ± 0.079.
With QRVRNMRELGLIQSTEF [YOR098C/NUP1] the protein stability index (doa10∆) was 2.78 ± 0.12, the protein stability index (pdr5∆) was 2.03 ± 0.1 and the protein stability index (san1∆) was 2.84 ± 0.26. For the same sequence, the protein stability index (ubr1∆) was 2.22 ± 0.12.
GEIQLLFQRQKLHEFYL [IRR1] gave a protein stability index (doa10∆) of 2.71 ± 0.12, a protein stability index (pdr5∆) of 2.96 ± 0.075 and a protein stability index (san1∆) of 2.63 ± 0.061. For the same sequence, the protein stability index (ubr1∆) was 2.9 ± 0.16.
In the case of DSTAVALEEGLNEEAVI [YJL039C/NUP192], the protein stability index (doa10∆) is reported as 3.08 ± 0.084, the protein stability index (pdr5∆) is reported as 3.12 ± 0.04 and the protein stability index (san1∆) is reported as 2.68 ± 0.058. For the same sequence, the protein stability index (ubr1∆) was 2.98 ± 0.05.
Sequence IDVMKSQIIPLMKKACY [SNU114] has a protein stability index (doa10∆) of 2.23 ± 0.094, a protein stability index (pdr5∆) of 2 ± 0.051 and a protein stability index (san1∆) of 2.77 ± 0.047. For the same sequence, the protein stability index (ubr1∆) was 2.08 ± 0.05.
CVRVQLIKNGKKVTAFV [RPS23A] showed a protein stability index (doa10∆) of 2.59 ± 0.085, a protein stability index (pdr5∆) of 2.66 ± 0.093 and a protein stability index (san1∆) of 3.16 ± 0.13. For the same sequence, the protein stability index (ubr1∆) was 3.13 ± 0.088.
QWLIMLGICTHLGCVPI [RIP1] gave a protein stability index (doa10∆) of 1.69 ± 0.067, a protein stability index (pdr5∆) of 1.37 ± 0.078 and a protein stability index (san1∆) of 1.29 ± 0.14. For the same sequence, the protein stability index (ubr1∆) was 1.46 ± 0.089.
In the case of KVQISKIPILAQHESFL [RPN9], the protein stability index (doa10∆) is reported as 1.97 ± 0.06, the protein stability index (pdr5∆) is reported as 2.05 ± 0.045 and the protein stability index (san1∆) is reported as 2.16 ± 0.075. The protein stability index (ubr1∆) was 2.41 ± 0.037.
EQENMRKVREQEELKKR [MED2] gave a protein stability index (pdr5∆) of 3.13 ± 0.19 and a protein stability index (ubr1∆) of 3.56 ± 0.11.
